T1: Human CLEC12A expressed on cells (Ba/F3-hCLEC12A, PL21, HL60) (human, UniProt Q5QGZ9 1-265)
T1 sequence: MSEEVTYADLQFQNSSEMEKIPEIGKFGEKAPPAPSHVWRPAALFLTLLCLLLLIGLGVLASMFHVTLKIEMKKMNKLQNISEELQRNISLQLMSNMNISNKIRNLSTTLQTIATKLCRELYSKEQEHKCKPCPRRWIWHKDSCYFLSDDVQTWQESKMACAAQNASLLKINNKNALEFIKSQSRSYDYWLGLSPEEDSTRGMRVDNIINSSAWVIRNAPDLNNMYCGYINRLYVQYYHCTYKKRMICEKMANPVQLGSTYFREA

T2: human CLEC12A expressed on cells (human, UniProt Q5QGZ9 1-265)
T2 construct: Transduced isogenic cells or endogenous expression on AML cells; also called RMA-hCLEC12A; Ba/F3-hCLEC12A
T2 sequence: T1 sequence

T3: recombinant human CLEC12A-His (human, UniProt Q5QGZ9 65-265)
T3 construct: also called hCLEC12A-His; hCLEC12A
T3 sequence: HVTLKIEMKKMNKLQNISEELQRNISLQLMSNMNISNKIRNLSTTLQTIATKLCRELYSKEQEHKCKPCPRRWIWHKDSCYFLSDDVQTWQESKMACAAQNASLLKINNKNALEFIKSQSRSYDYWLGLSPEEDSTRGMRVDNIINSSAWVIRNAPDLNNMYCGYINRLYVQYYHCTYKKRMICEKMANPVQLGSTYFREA

B1: AB0237 (F3'-1602 TriNKET) (bispecific antibody, human IgG1, kappa)
chain: QLQLQESGPGLVKPSETLSLTCTVSGFSLTNYGLHWIRQPPGKCLEWIGVIWSGGKTDYNPSLKSRVTISKDTSKNQFSLKLSSVQAADTAVYYCAKYDYDDSLDYWGQGTLVTVSSGGGGSGGGGSGGGGSGGGGSDIQMTQSPSSLSASVGDRVTITCHASQNINFWLSWYQQKPGKAPKLLIYEASNLHTGVPSRFSGSGSGTRFTLTISSLQPEDIATYYCQQSHSYPLTFGCGTKLEIKGSDKTHTCPPCPAPELLGGPSVFLFPPKPKDTLMISRTPEVTCVVVDVSHEDPEVKFNWYVDGVEVHNAKTKPREEQYNSTYRVVSVLTVLHQDWLNGKEYKCKVSNKALPAPIEKTISKAKGQPREPRVYTLPPCRDELTKNQVSLTCLVKGFYPSDIAVEWESNGQPENNYKTTPPVLVSDGSFTLYSKLTVDKSRWQQGNVFSCSVMHEALHNHYTQKSLSLSPG
heavy: EVQLVESGGGLVKPGGSLRLSCAASGFTFSSYSMNWVRQAPGKGLEWVSSISSSSSYIYYADSVKGRFTISRDNAKNSLYLQMNSLRAEDTAVYYCARGAPIGAAAGWFDPWGQGTLVTVSSASTKGPSVFPLAPSSKSTSGGTAALGCLVKDYFPEPVTVSWNSGALTSGVHTFPAVLQSSGLYSLSSVVTVPSSSLGTQTYICNVNHKPSNTKVDKKVEPKSCDKTHTCPPCPAPELLGGPSVFLFPPKPKDTLMISRTPEVTCVVVDVSHEDPEVKFNWYVDGVEVHNAKTKPREEQYNSTYRVVSVLTVLHQDWLNGKEYKCKVSNKALPAPIEKTISKAKGQPREPQVCTLPPSRDELTENQVSLTCLVKGFYPSDIAVEWESNGQPENNYKTTPPVLDSDGSFFLYSWLTVDKSRWQQGNVFSCSVMHEALHNHYTQKSLSLSPG
light: DIQMTQSPSSVSASVGDRVTITCRASQGISSWLAWYQQKPGKAPKLLIYAASSLQSGVPSRFSGSGSGTDFTLTISSLQPEDFATYYCQQGVSFPRTFGGGTKVEIKRTVAAPSVFIFPPSDEQLKSGTASVVCLLNNFYPREAKVQWKVDNALQSGNSQESVTEQDSKDSTYSLSSTLTLSKADYEKHKVYACEVTHQGLSSPVTKSFNRGEC
B2: AB0189 (other)
chain: DIKMTQSPSSLSASVGDRVTITCKASQDIYNYLSWFQQKPGKAPKPLIYRANILVSGVPSRFSGSGSGQDYTLTISSLQPEDIATYYCLQFDAFPFTFGCGTKLEIKGGGGSGGGGSGGGGSGGGGSEVQLVESGGGVVQPGGSLRLSCAASGFTFNAFGMHWVRQAPGKCLEWVAFISSGSTSIYYANTVKGRFTISRDNSKNTLYLQMNSLRAEDTAVYYCARDGYPTGGAMDYWGQGTSVTVSSGSDKTHTCPPCPAPELLGGPSVFLFPPKPKDTLMISRTPEVTCVVVDVSHEDPEVKFNWYVDGVEVHNAKTKPREEQYNSTYRVVSVLTVLHQDWLNGKEYKCKVSNKALPAPIEKTISKAKGQPREPRVYTLPPCRDELTKNQVSLTCLVKGFYPSDIAVEWESNGQPENNYKTTPPVLVSDGSFTLYSKLTVDKSRWQQGNVFSCSVMHEALHNHYTQKSLSLSPG
heavy: B1 heavy
light: B1 light
notes: As AB0185
B3: AB0037 mAb (Humanized 1602 anti-CLEC12A mAb) (antibody, V domains shown)
VH: QLQLQESGPGLVKPSETLSLTCTVSGFSLTNYGLHWIRQPPGKGLEWIGVIWSGGKTDYNPSLKSRVTISKDTSKNQFSLKLSSVQAADTAVYYCAKYDYDDSLDYWGQGTLVTVSS
VL: DIQMTQSPSSLSASVGDRVTITCHASQNINFWLSWYQQKPGKAPKLLIYEASNLHTGVPSRFSGSGSGTRFTLTISSLQPEDIATYYCQQSHSYPLTFGGGTKLEIK
B4: Genentech-h6E7 (antibody, V domains shown)
VH: EVQLVQSGAEVKKPGASVKVSCKASGYSFTDYYMHWVRQAPGQGLEWIGRINPYNGAAFYSQNFKDRVTLTVDTSTSTAYLELSSLRSEDTAVYYCAIERGADLEGYAMDYWGQGTLVTVSS
VL: DIQMTQSPSSLSASVGDRVTITCRASQSVSTSSYNYMHWYQQKPGKPPKLLIKYASNLESGVPSRFSGSGSGTDFTLTISSLQPEDFATYYCQHSWEIPLTFGQGTKVEIK
B5: Merus-CLL1 (antibody, V domains shown)
VH: EVQLVQSGAEVKKPGASVKVSCKASGYTFTSYYMHWVRQAPGQGLEWMGIINPSGGSTSYAQKFQGRVTMTRDTSTSTVYMELSSLRSEDTAVYYCARGNYGDEFDYWGQGTLVTVSS
VL: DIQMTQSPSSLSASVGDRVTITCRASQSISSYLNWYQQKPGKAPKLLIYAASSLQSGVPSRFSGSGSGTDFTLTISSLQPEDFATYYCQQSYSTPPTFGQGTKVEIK

What was measured:
[1] = molecular target: T1, Human CLEC12A expressed on cells …; assay: cell-based or functional assay
[2] = molecular target: T2, human CLEC12A expressed on cells; assay: flow cytometry, HL60
[3] = molecular target: T3, recombinant human CLEC12A-His; assay: SPR screening, semi-purified
[4] = molecular target: T2, human CLEC12A expressed on cells; assay: flow cytometry, hCLEC12A+ Ba/F3
[5] = molecular target: T2, human CLEC12A expressed on cells; assay: flow cytometry, PL21 cells
Procedure: The ability of the eight purified subcloned mAbs to bind to CLEC12A expressing cells was assessed by FACS analysis with human CLEC12A-positive PL21 cancer cell line.

Binder	% Max, ADCP activity of M0 macrophages against PL21 cells [1]	EC50, ADCP activity of M0 macrophages against PL21 cells [1]	EC50 [5]	Max MFI [5]	also measured
B1	12%	0.08 nM			
B2					EC50 [2]: 0.7 nM; Max binding MFI [2]: 420 MFI; Kd [3]: 1.21 nM; koff [3]: 0.00127 s⁻¹; kon [3]: 1.04e+06 M⁻¹ s⁻¹; EC50 [4]: 1.3 nM; Max binding MFI [4]: 8760 MFI
B3	11%	0.05 nM			
B4			5 nM	265 MFI	
B5			2.02 nM	201 MFI	

Reference: patent publication US20220119534A1 (DRAGONFLY THERAPEUTICS, published 2022)
